± gives the standard deviation of the averaged measurements.
Assay: total protein half-life in vivo (active degradation + dilution); higher = more stable protein
[1] = E. coli NCM3722 delta-smpB, growth: N-lim chemostat, doubling time 6 h
[2] = wild type E. coli NCM3722, growth: C-lim chemostat, doubling time 6 h
[3] = wild type E. coli NCM3722, growth: N-lim chemostat, doubling time 6 h
[4] = wild type E. coli NCM3722, growth: P-lim chemostat, doubling time 6 h
[5] = wild type E. coli NCM3722, growth: P-lim chemostat, doubling time 12 h
[6] = E. coli NCM3722 delta-clpP delta-lon delta-hslV, growth: N-lim chemostat, doubling time 6 h
[7] = E. coli NCM3722 delta-lon, growth: N-lim chemostat, doubling time 6 h
[8] = wild type E. coli NCM3722, growth: C-lim chemostat, doubling time 3 h
[9] = wild type E. coli NCM3722, growth: C-lim chemostat, doubling time 12 h
[10] = E. coli NCM3722 delta-clpP, growth: N-lim chemostat, doubling time 6 h
[11] = E. coli NCM3722 delta-hslV, growth: N-lim chemostat, doubling time 6 h
[12] = wild type E. coli NCM3722, growth: N-lim chemostat, doubling time 12 h

Sequence | total protein half-life in vivo [1] [h] | total protein half-life in vivo [2] [h] | total protein half-life in vivo [3] [h] | total protein half-life in vivo [4] [h] | total protein half-life in vivo [5] [h] | total protein half-life in vivo [6] [h] | total protein half-life in vivo [7] [h] | total protein half-life in vivo [8] [h] | total protein half-life in vivo [9] [h] | total protein half-life in vivo [10] [h] | total protein half-life in vivo [11] [h] | total protein half-life in vivo [12] [h]
MSRINKFVLTVSLLIFIMISAVACGIYTQMVKERVYSLKQSVIDTAFAVANIAEYRRSVAIDLINTLNPTEEQLLVGLRTAYADSVSPSYLYDVGPYLISSDECIQVKEFEKNYCADIMQVVKYRHVKNTGFISFDGKTFVYYLYPVTHNRSLIFLLGLERFSLLSKSLAMDSENLMFSLFKNGKPVTGDEYNAKNAIFTVSEAMEHFAYLPTGLYVFAYKKDVYLRVCTLIIFFAALVAVISGASCLYLVRRVINRGIVEKEAIINNHFERVLDGGLFFSAADVKKLYSMYNSAFLDDLTKAMGRKSFDEDLKALPEKGGYLCLFDVDKFKNINDTFGHLLGDEVLMKVVKILKSQIPVDKGKVYRFGGDEFAVIYTGGTLEELLSILKEIVHFQVGSINLSTSIGVAHSNECPTVERLKMLADERLYKSKKNGRAQISWQ | 5.51 ± 1.1 | 5.63 ± 1.6 | 6.47 ± 1.1 | 6.08 ± 0.31 | 13.1 ± 1.4 |  |  |  |  |  |  | 
MSRPTIIINDLDAERIDILLEQPAYAGLPIADALNAELDRAQMCSPEEMPHDVVTMNSRVKFRNLSDGEVRVRTLVYPAKMTDSNTQLSVMAPVGAALLGLRVGDSIHWELPGGVATHLEVLELEYQPEAAGDYLL [P0AFW4] |  | 1.55 ± 0.086 | 1.43 ± 0.68 | 1.36 | 2.53 | 4.22 ± 0.14 | 1.49 | 1.02 ± 0.099 | 2.08 ± 0.0038 |  |  | 
MSRRLRRTKIVTTLGPATDRDNNLEKVIAAGANVVRMNFSHGSPEDHKMRADKVREIAAKLGRHVAILGDLQGPKIRVSTFKEGKVFLNIGDKFLLDANLGKGEGDKEKVGIDYKGLPADVVPGDILLLDDGRVQLKVLEVQGMKVFTEVTVGGPLSNNKGINKLGGGLSAEALTEKDKADIKTAALIGVDYLAVSFPRCGEDLNYARRLARDAGCDAKIVAKVERAEAVCSQDAMDDIILASDVVMVARGDLGVEIGDPELVGIQKALIRRARQLNRAVITATQMMESMITNPMPTRAEVMDVANAVLDGTDAVMLSAETAAGQYPSETVAAMARVCLGAEKIPSINVSKHRLDVQFDNVEEAIAMSAMYAANHLKGVTAIITMTESGRTALMTSRISSGLPIFAMSRHERTLNLTALYRGVTPVHFDSANDGVAAASEAVNLLRDKGYLMSGDLVIVTQGDVMSTVGSTNTTRILTVE | 5.32 ± 0.27 | 5.989 ± 0.05 | 5.4882 ± 0.00083 | 5.96 ± 0.26 | 13.1 ± 0.68 | 5.558 ± 0.04 | 5.61 ± 0.28 | 3.02 ± 0.11 | 11.4 ± 0.78 | 5.39 ± 0.19 | 5.15 ± 0.41 | 9.898 ± 0.052
MSSFDYLKTAIKQQGCTLQQVADASGMTKGYLSQLLNAKIKSPSAQKLEALHRFLGLEFPRQKKTIGVVFGKFYPLHTGHIYLIQRACSQVDELHIIMGFDDTRDRALFEDSAMSQQPTVPDRLRWLLQTFKYQKNIRIHAFNEEGMEPYPHGWDVWSNGIKKFMAEKGIQPDLIYTSEEADAPQYMEHLGIETVLVDPKRTFMSISGAQIRENPFRYWEYIPTEVKPFFVRTVAILGGESSGKSTLVNKLANIFNTTSAWEYGRDYVFSHLGGDEIALQYSDYDKIALGHAQYIDFAVKYANKVAFIDTDFVTTQAFCKKYEGREHPFVQALIDEYRFDLVILLENNTPWVADGLRSLGSSVDRKEFQNLLVEMLEENNIEFVRVEEEDYDSRFLRCVELVREMMGEQR | 5.71 ± 0.23 | 5.76 ± 0.61 | 5.3 ± 0.24 | 5.97 ± 0.31 | 10.8 ± 0.14 | 5.91 ± 0.15 | 6.4 ± 0.35 | 2.975 ± 0.013 | 10.5 ± 1.5 |  | 5.88 ± 0.4 | 10.6 ± 1.9
MSSISLIQPDRDLFSWPQYWAACFGPAPFLPMSREEMDQLGWDSCDIILVTGDAYVDHPSFGMAICGRMLEAQGFRVGIIAQPDWSSKDDFMRLGKPNLFFGVTAGNMDSMINRYTADRRLRHDDAYTPDNVAGKRPDRATLVYTQRCKEAWKDVPVILGGIEASLRRTAHYDYWSDTVRRSVLVDSKADMLMFGNGERPLVEVAHRLAMGEPISEIRDVRNTAIIVKEALPGWSGVDSTRLDTPGKIDPIPHPYGEDLPCADNKPVAPKKQEAKAVTVQPPRPKPWEKTYVLLPSFEKVKGDKVLYAHASRILHHETNPGCARALMQKHGDRYVWINPPAIPLSTEEMDSVFALPYKRVPHPAYGNARIPAYEMIRFSVNIMRGCFGGCSFCSITEHEGRIIQSRSEDSIINEIEAIRDTVPGFTGVISDLGGPTANMYMLRCKSPRAEQTCRRLSCVYPDICPHMDTNHEPTINLYRRARDLKGIKKILIASGVRYDIAVEDPRYIKELATHHVGGYLKIAPEHTEEGPLSKMMKPGMGSYDRFKELFDTYSKQAGKEQYLIPYFISAHPGTRDEDMVNLALWLKKHRFRLDQVQNFYPSPLANSTTMYYTGKNPLAKIGYKSEDVFVPKGDKQRRLHKALLRYHDPANWPLIRQALEAMGKKHLIGSRRDCLVPAPTIEEMREARRQNRNTRPALTKHTPMATQRQTPATAKKASSTQSRPVNAGAKKRPKAAVGR |  |  |  |  | 1.72 | 5.41 ± 1.1 | 0.614 | 0.206 |  | 1.08 |  | 
MSSKVEQLRAQLNERILVLDGGMGTMIQSYRLNEADFRGERFADWPCDLKGNNDLLVLSKPEVIAAIHNAYFEAGADIIETNTFNSTTIAMADYQMESLSAEINFAAAKLARACADEWTARTPEKPRYVAGVLGPTNRTASISPDVNDPAFRNITFDGLVAAYRESTKALVEGGADLILIETVFDTLNAKAAVFAVKTEFEALGVELPIMISGTITDASGRTLSGQTTEAFYNSLRHAEALTFGLNCALGPDELRQYVQELSRIAECYVTAHPNAGLPNAFGEYDLDADTMAKQIREWAQAGFLNIVGGCCGTTPQHIAAMSRAVEGLAPRKLPEIPVACRLSGLEPLNIGEDSLFVNVGERTNVTGSAKFKRLIKEEKYSEALDVARQQVENGAQIIDINMDEGMLDAEAAMVRFLNLIAGEPDIARVPIMIDSSKWDVIEKGLKCIQGKGIVNSISMKEGVDAFIHHAKLLRRYGAAVVVMAFDEQGQADTRARKIEICRRAYKILTEEVGFPPEDIIFDPNIFAVATGIEEHNNYAQDFIGACEDIKRELPHALISGGVSNVSFSFRGNDPVREAIHAVFLYYAIRNGMDMGIVNAGQLAIYDDLPAELRDAVEDVILNRRDDGTERLLELAEKYRGSKTDDTANAQQAEWRSWEVNKRLEYSLVKGITEFIEQDTEEARQQATRPIEVIEGPLMDGMNVVGDLFGEGKMFLPQVVKSARVMKQAVAYLEPFIEASKEQGKTNGKMVIATVKGDVHDIGKNIVGVVLQCNNYEIVDLGVMVPAEKILRTAKEVNADLIGLSGLITPSLDEMVNVAKEMERQGFTIPLLIGGATTSKAHTAVKIEQNYSGPTVYVQNASRTVGVVAALLSDTQRDDFVARTRKEYETVRIQHGRKKPRTPPVTLEAARDNDFAFDWQAYTPPVAHRLGVQEVEASIETLRNYIDWTPFFMTWSLAGKYPRILEDEVVGVEAQRLFKDANDMLDKLSAEKTLNPRGVVGLFPANRVGDDIEIYRDETRTHVINVSHHLRQQTEKTGFANYCLADFVAPKLSGKADYIGAFAVTGGLEEDALADAFEAQHDDYNKIMVKALADRLAEAFAEYLHERVRKVYWGYAPNENLSNEELIRENYQGIRPAPGYPACPEHTEKATIWELLEVEKHTGMKLTESFAMWPGASVSGWYFSHPDSKYYAVAQIQRDQVEDYARRKGMSVTEVERWLAPNLGYDAD | 3.31 ± 0.087 | 5.05 ± 0.14 | 3.489 ± 0.028 | 5.43 ± 0.51 | 9.81 ± 0.4 | 5.12 ± 0.36 | 3.96 ± 0.33 | 2.73 ± 0.051 | 8.09 ± 0.26 | 4.3 ± 0.33 | 3.71 ± 0.047 | 5.48 ± 0.14

Reference: the supplement of paper PMC11246515
